Bridges are numbered along the chain shown (N, C = ends).
Target: T1, rabbit albumin (rabbit, UniProt P49065 25-608)
T1 chain: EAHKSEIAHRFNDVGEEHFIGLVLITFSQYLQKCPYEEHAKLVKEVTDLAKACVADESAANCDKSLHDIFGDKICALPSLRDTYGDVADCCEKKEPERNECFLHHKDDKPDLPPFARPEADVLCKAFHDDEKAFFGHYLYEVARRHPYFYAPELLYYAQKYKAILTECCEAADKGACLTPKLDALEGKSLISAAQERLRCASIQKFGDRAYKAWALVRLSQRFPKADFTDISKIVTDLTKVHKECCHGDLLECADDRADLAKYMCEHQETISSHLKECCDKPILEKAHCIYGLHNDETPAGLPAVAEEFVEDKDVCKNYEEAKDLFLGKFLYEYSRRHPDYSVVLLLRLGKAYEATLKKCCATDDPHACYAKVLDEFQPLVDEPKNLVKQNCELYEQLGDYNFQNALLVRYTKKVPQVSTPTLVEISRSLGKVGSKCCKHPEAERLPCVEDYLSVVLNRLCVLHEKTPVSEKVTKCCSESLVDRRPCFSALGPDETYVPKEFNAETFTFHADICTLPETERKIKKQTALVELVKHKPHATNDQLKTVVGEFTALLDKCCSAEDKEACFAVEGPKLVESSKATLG
Experiment: competition ELISA (SA08b binding to rabbit albumin)

Binder: Ac-QGLIGDICLPRWGCLWGDSVK-NH2 (disulfide 8-14 (inferred)) [SA08]
- IC50: 33 nM
